Test results reported in the supplement of paper PMC9170038.

Columns and labels:
MS2 coat protein [1] = experiment: apparent KD of MS2 coat protein; designed switch direction (-1 OFF switch, 1 ON switch): -1; higher = weaker reporter binding; conditions: Eterna round: R98
Method: (§1)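 RNA-MaP: designed FMN/MS2 RNA switches (84 nt design region) are transcribed on-chip within common flanks and titrated with SNAP-549-labelled MS2 coat protein (about 1-3000 nM) in 100 mM Tris pH 7.5, 80 mM KCl, 4 mM MgCl2, without or with 200 uM FMN. Median apparent KD per design; activation ratio = KD,OFF / KD,ON.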

MS2 coat protein [2] = experiment: apparent KD of MS2 coat protein; designed switch direction (-1 OFF switch, 1 ON switch): 1; higher = weaker reporter binding; conditions: Eterna round: R98
Method: as §1

MS2 coat protein [3] = experiment: apparent KD of MS2 coat protein; higher = weaker reporter binding; conditions: Eterna round: R101
Method: as §1

## AAUAUGAGCUGGAAUAUAAAACUCACAUGAGGAUCACCCAUGUAGGAUAUCAGCACGAUAAGUGCUGAGAAGGACAACCAGCUC [Denovo 31]
MS2 coat protein [1]; input ligand: FMN 200 uM
  apparent KD of MS2 coat protein: 0.0151 µM
MS2 coat protein [1]; input ligand: none
  apparent KD of MS2 coat protein: 0.0168 µM

## UAGAUAUGGUGAGGAUAUGCAGAGGAUCACCCUGUAGAAGGCAUCAGGGUAGAAGGUGCAAGGAUCACCUGUAAGGAUAUAUCC [pwkr2 ssNG1 DX.29]
MS2 coat protein [2]; input ligand: FMN 200 uM
  apparent KD of MS2 coat protein: 0.917 µM
MS2 coat protein [2]; input ligand: none
  apparent KD of MS2 coat protein: 1.05 µM

## GACUUGGCUACAUGAGGAUCACCCAUGUUUGACUGGAUCGAUUAGGAUAUAGUGAUUUGCAACAAUUAGAAGGGAUAUUUACGG [byesamestateseeyounextround#3]
MS2 coat protein [2]; input ligand: FMN 200 uM
  apparent KD of MS2 coat protein: 0.0313 µM
MS2 coat protein [2]; input ligand: none
  apparent KD of MS2 coat protein: 0.0329 µM

## ACAUACAUUCGAGGAUAUCGGUGAUUAAUUCUACGAGAAGGCGAUUUAAGAUAUAAUAUUUUAGACAUGAGGAUCACCCAUGUA [JR_SSNG1_Sub036]
MS2 coat protein [2]; input ligand: FMN 200 uM
  apparent KD of MS2 coat protein: 0.0229 µM
MS2 coat protein [2]; input ligand: none
  apparent KD of MS2 coat protein: 0.0283 µM

## GCACUGGAUGUAGGAUAUCAGGACGAUAAGUCCUGAGAAGGACAUGAGGAUCACCCAUGUGCCAAAACCAGUGCAUAUAAUAUA [Denovo Exng1 33]
MS2 coat protein [1]; input ligand: FMN 200 uM
  apparent KD of MS2 coat protein: 0.0169 µM
MS2 coat protein [1]; input ligand: none
  apparent KD of MS2 coat protein: 0.0125 µM

## GAUCCGAGCACAGGAUAUGUUAGAGAGGGUGAGACAGAAGGGUGCUCCGGUAAGGCCAAGCACAUGAGGAUCACCCAUGUACAU [Orbezaen]
MS2 coat protein [2]; input ligand: FMN 200 uM
  apparent KD of MS2 coat protein: 0.0649 µM
MS2 coat protein [2]; input ligand: none
  apparent KD of MS2 coat protein: 0.0297 µM

## UCAUACAUGAGGAUCACCCAUGACAUGAGGAUCACCCAUGUGCAGGAUAUACGUGAUAUAAUAUAGUAGAAGGGCAGACCAUAA [LRO005_Exclusion NG 3]
MS2 coat protein [1]; input ligand: FMN 200 uM
  apparent KD of MS2 coat protein: 0.0591 µM
MS2 coat protein [1]; input ligand: none
  apparent KD of MS2 coat protein: 0.0406 µM

## AAAAUAAAGGCAGGAUAUACAUGAAUAAAUAAUAUAAUAUAUAAUAAAACAUGAGGAUCACCCAUGUAGAAGGGCCAAAAUAAA [LRO024_Exclusion NG 2]
MS2 coat protein [1]; input ligand: FMN 200 uM
  apparent KD of MS2 coat protein: 0.107 µM
MS2 coat protein [1]; input ligand: none
  apparent KD of MS2 coat protein: 0.0723 µM

## AAUAUAAGAGCUGGAAAUAAACUCACAUGAGGAUCACCCAUGUAGGAUAUCAGCACGAUAAGUGCUGAGAAGGACAUCCAGCUC [Denovo 56]
MS2 coat protein [1]; input ligand: FMN 200 uM
  apparent KD of MS2 coat protein: 0.0147 µM
MS2 coat protein [1]; input ligand: none
  apparent KD of MS2 coat protein: 0.0164 µM

## UGUUGUUACGCAGGAUAUUGCCAACAGGCGGUAGGAUAUCCGAAAGGAGAAGGACCGCCAACAGGCGAGAAGGGCGGGUUAACA [pwkr exNG2 2xF7 2FMN.10.1]
MS2 coat protein [1]; input ligand: FMN 200 uM
  apparent KD of MS2 coat protein: 0.037 µM
MS2 coat protein [1]; input ligand: none
  apparent KD of MS2 coat protein: 0.0352 µM

## GGGUCGCUUGGAGGAUAUCCAACUAUCCUAGUUGGAGAAGGCCAAGCUACAGAGCUAAGCUUGGAAGUCACUUCGGACCCACAC [pwkr ssNG1 F9.4.5]
MS2 coat protein [2]; input ligand: FMN 200 uM
  apparent KD of MS2 coat protein: 0.047 µM
MS2 coat protein [2]; input ligand: none
  apparent KD of MS2 coat protein: 0.0156 µM

## UCUCUGGAAUACAUGAGGAUCACCCAUGUGUAAACAUUUACACAGGAUAUCGACGUCUGAGACGACGAGAAGGGUGGGCAGCAA [Rexele]
MS2 coat protein [2]; input ligand: FMN 200 uM
  apparent KD of MS2 coat protein: 1 µM
MS2 coat protein [2]; input ligand: none
  apparent KD of MS2 coat protein: 0.252 µM

## GGUUGACGACAAUUACAUGAGGAUCACCCAUGUUGUGGGAUGCAGGAUAUGUGGUAUAUUAUUUAACAGAAGGGCAAUAAUUUU [JR_SSNG3_Sub063]
MS2 coat protein [2]; input ligand: FMN 200 uM
  apparent KD of MS2 coat protein: 0.0547 µM
MS2 coat protein [2]; input ligand: none
  apparent KD of MS2 coat protein: 0.0323 µM

## GGUCCAUCAUGAGGAUAUGGCACCUUAUUGGUGCCAGAAGGCAUGUGUAUUCACAUGAGGAUCACCCAUGUAAUAAAUUGGACC [Pyrimidine booster 8]
MS2 coat protein [2]; input ligand: FMN 200 uM
  apparent KD of MS2 coat protein: 0.0215 µM
MS2 coat protein [2]; input ligand: none
  apparent KD of MS2 coat protein: 0.0532 µM

## GUUGCUUUCCGAGGAUAUUCCGGGCGUGGCUAUACAUGAGGAUCACCCAUGUGGCGGAAGCCUAGGGAGAAGGCGGGCUGCUUC [salish99_SSNG2_r2_230]
MS2 coat protein [2]; input ligand: FMN 200 uM
  apparent KD of MS2 coat protein: 0.0163 µM
MS2 coat protein [2]; input ligand: none
  apparent KD of MS2 coat protein: 0.0171 µM

## AGGAGAAAUGUAGGAUAUGGGCGGGCGGACGGGCAAAGCGCGUCCGCCCGCCCAGAAGGACAUGAGGAUCACCCAUGUUUCCCU [Wow, my 5th design!] (puzzle (switch architecture): Small Loop Exclusion NG 1)
MS2 coat protein [3]; input ligand: FMN 200 uM
  apparent KD of MS2 coat protein: 0.013 µM
MS2 coat protein [3]; input ligand: none
  apparent KD of MS2 coat protein: 0.0122 µM

## GACUGCAGGAUAACAACCUGCAGUCACUUCUGAGGAUCACCCAGAAGGGCUGAGGUAAUACCUCAGCAGGAUAUGGAGUGUAAA [#SharedSequence IExNG# - 8] (puzzle (switch architecture): Inverted Exclusion NG 3)
MS2 coat protein [3]; input ligand: FMN 200 uM
  apparent KD of MS2 coat protein: 0.0701 µM
MS2 coat protein [3]; input ligand: none
  apparent KD of MS2 coat protein: 0.0219 µM

## GCUUGCGACGCAGGAUAUGGGUGCCUGCACACGAGGAUCACCCGUGUAGAGGAAGCGAAAAGCUCUCAGAAGGGCGUCGCAGGC [United States 5 - Jieux - Same State NG 2]
MS2 coat protein [2]; input ligand: FMN 200 uM
  apparent KD of MS2 coat protein: 0.0207 µM
MS2 coat protein [2]; input ligand: none
  apparent KD of MS2 coat protein: 0.0453 µM

## CCUGUCGCAUGAGGAUAUGGUCAGCUUUGCUGACCAGAAGGCAUGUCAAUAGACAUGAGGAUCACCCAUGUAGUAAAGACAGGA [Mat - Same State NG 1 - JL Mod - D36]
MS2 coat protein [2]; input ligand: FMN 200 uM
  apparent KD of MS2 coat protein: 0.0362 µM
MS2 coat protein [2]; input ligand: none
  apparent KD of MS2 coat protein: 0.395 µM

## GGAUCCAUCACAGGAUAUGCUGGACUUUGUCCAGCAGAAGGGUGAACAUGAGGAUCACCCAUGUAUUGGAUCCAUAUAUUUAAU [Denovo 35]
MS2 coat protein [2]; input ligand: FMN 200 uM
  apparent KD of MS2 coat protein: 0.0941 µM
MS2 coat protein [2]; input ligand: none
  apparent KD of MS2 coat protein: 1.29 µM

## AAAUAAUCCUUAGGAUAUGACUCCGAAACGGAGUCAGAAGGGAGGAUCACCCUCUUCAGCUCAGCGUCGAAAGACGCUGAGCAA [#SharedSequence ExNG1 - 22] (puzzle (switch architecture): Exclusion NG 1)
MS2 coat protein [3]; input ligand: FMN 200 uM
  apparent KD of MS2 coat protein: 0.2 µM
MS2 coat protein [3]; input ligand: none
  apparent KD of MS2 coat protein: 0.0728 µM

## GGAGAUACAUGAGGAUCACCCAUGUAGGAUAUAUAGUAUAUAUAUAUUGAAAGGUAUAUAUAUAUAUAGAAGGGCGUGCACACC [#LOL-18] (puzzle (switch architecture): Small Loop Exclusion NG 3)
MS2 coat protein [3]; input ligand: FMN 200 uM
  apparent KD of MS2 coat protein: 0.00673 µM
MS2 coat protein [3]; input ligand: none
  apparent KD of MS2 coat protein: 0.00907 µM

## UAAUAUAUAUAGAAGGACAUGAGGAUCACCCAUGUCGCCGGGCCCGGGAAACCGGGCCCGGCCAUGUAGGAUAUAUAUAUAUUA [#This is a good prank 10] (puzzle (switch architecture): Inverted Exclusion NG 2)
MS2 coat protein [3]; input ligand: FMN 200 uM
  apparent KD of MS2 coat protein: 0.00517 µM
MS2 coat protein [3]; input ligand: none
  apparent KD of MS2 coat protein: 0.0049 µM

## GUCACGGUUAAUUCCGUGACGCGCAAUCCUUGAGGAUCACCCAAGGAUAUCGACGUCAAUGACGUCGAGAAGGUGGUUGAGCGC [#SharedSequence2] (puzzle (switch architecture): Exclusion NG 3)
MS2 coat protein [3]; input ligand: FMN 200 uM
  apparent KD of MS2 coat protein: 0.0235 µM
MS2 coat protein [3]; input ligand: none
  apparent KD of MS2 coat protein: 0.0136 µM

## CCGAUUAGCACAGGAUAUGGGAGUUCGUAGCUCCCAGAAGGGUGAGCCAAUACAUGAGGAUCACCCAUGUGCGGUAGGUCAGGA [Energe]
MS2 coat protein [2]; input ligand: FMN 200 uM
  apparent KD of MS2 coat protein: 0.056 µM
MS2 coat protein [2]; input ligand: none
  apparent KD of MS2 coat protein: 0.0571 µM

## CCGAUGCAAAUAAAACAUGAGGAUCACCCAUGUGAGUCUCAUGAGGAUAUGCAGGUCAAAGACUUGCAGAAGGCAUGGCGUCGG [Eli sng3 2.08]
MS2 coat protein [2]; input ligand: FMN 200 uM
  apparent KD of MS2 coat protein: 0.135 µM
MS2 coat protein [2]; input ligand: none
  apparent KD of MS2 coat protein: 1.37 µM

## GUCAGCUCGUGAGGAUAUACAACACUGCUUCGGCAGUGUAUUAAGAUCACAUGAGGAUCACCCAUGUAGAAGGCACGAGCUGAU (puzzle (switch architecture): Exclusion NG 2)
MS2 coat protein [3]; input ligand: FMN 200 uM
  apparent KD of MS2 coat protein: 0.24 µM
MS2 coat protein [3]; input ligand: none
  apparent KD of MS2 coat protein: 0.0139 µM

## UGAUCGCUUGGAGGAUAUCCAACUAUCCUAGUUGGAGAAGGCCAAGCUACAGAGCUAAGCUUGGAAGUCACUUCGAAUCAACAC [pwkr Chip 1 Control 70 ssNG1 F9.4]
MS2 coat protein [2]; input ligand: FMN 200 uM
  apparent KD of MS2 coat protein: 0.0648 µM
MS2 coat protein [2]; input ligand: none
  apparent KD of MS2 coat protein: 0.0536 µM
